The nanobody polyreactivity screen of Harvey et al. (2022)

Experiment: yeast display, Sf9 membrane polyspecificity reagent, FACS + sequencing; frameworks hold sequencing errors
In short: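 Galactose-induced (36–48 hours) yeast carrying a synthetic nanobody display library were exposed to 10% biotinylated, detergent-solubilized Sf9 membrane reagent at 4 °C for 1 hour. FACS followed streptavidin microbead enrichment, using low and high (top ~1%) gates for expression (anti-HA) and reagent binding (streptavidin). Colony PCR, MiSeq 2 × 250 sequencing and CDR-length filtering followed. Labels for polyreactivity reflect the gate of origin.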

| Sequence | polyreactivity (PSR sort gate) |
| --- | --- |
| QVQLVESGGGLVQAGGSLRLSCAASGSTFVYYAMGWYRQAPGTERELVAAITGSVDSTYYADSVKGRFTISRDNAKNPVYLQMNSLQPEDTAVYYCAADTYSTYWGQGTQVTVSS | low polyreactivity |
| QVQLVESGGGLVQAGGSLRLSCAASGRTFVPYAMGWYIQAPGKEREFVAAISSRVGSTYYADSVKGRFTISRDNAKNTVYLQMKSLKPEDTAVYYCNAPFKPAGFYSAWKYDYWGQGTQVSVSS | low polyreactivity |
| QVQLVESGGGLVQAGGSLRLSCAASGRIFSFNAMGWYRQAPGKERELVAGITDSGGSTYYADSVKGRFTISRDNAKNTVYFQMNSLKPEDTAVYYCNAEWPYSRVREYFYAYDYWGQGTQVTVSS | low polyreactivity |
| QDQLEESGGGLVQAGGSLRLSCAASGLTFIQYALGWYRQAPGKERELVAAINSGASTRYADSEKGRFTISRDNAMNTVYLQMNSLKPEDTAVYYCNARLRRYTNRYYKYYYWGQGTLVTVSS | high polyreactivity |
| QVQLVESGGGLVQAGGSLRLSCAASGSIFIINTMGWYRQAPGKERELVAAISWGGTDTNYADSVKGRFTISRDNAKNTVYLQMNSLKPEDTAVYYCNTDQDLVRSYDYWGHGTQVTVSS | low polyreactivity |
| QVQLVESGGGLVQAGGSLRLSCAASGRIFTLYTMGWYRQAPGKERELVAAINRGGSTTYADSVKGRFTISRDNAKNTVYLQMNSLKPEDTAVYYCAAYRYTSRVYSYWRGYDYWGQGTQVTVSS | high polyreactivity |
| QVQLVESGGGLVQAGGSLRLRCAASGSIFWYYTMGWYRQAPGIERELVATLTRSGSRTYDADSVKGRCTISRDNAKNTVYLQMNSLKPEDTAVYYCAKDYGPWTYDYWGQGTQVTVSS | low polyreactivity |
| QVQLVESGGGVVQAGGSLRLSCAATGSTFWWYAMGWYRQAPGKERELVADITTGGSTNYADSVKGRFTISRDNAKNTVYLQMNSLKPEDTAVYYCNADGVTPYTWRLRYFKYHFDYWGQGTQVTVSW | low polyreactivity |
| QVQLVESGGGLVQAVGSLRLSCAASGSTFREYTMGWYRQAPGKERELVAAITNSGGSTYYADSVKGRFTISRDNAKNTVYLQMNSLKPEDTAVYYCAAEGRYFYFTVKMDYWGQGTQVTVSS | low polyreactivity |
| QVQLVESGGGLVQAGGSLRLSCAASGRTSNFNAMGWYRQAPGKERELVAAINSDGSTYYADSVKGRFTISRDNAKNTVYLQMNSLKPEDTAVYYCAAVSLFRDSQFDYWGQGTQVTVSS | low polyreactivity |
| QVQLVESGGGLVQAGGSLRLSCAPSGSIFVHNAMGWYRQAPGKERELVAALDGGGGTYYADSVKGRFTISRDNAKNTVYLQMNSLKPEDTAVYYCAARYFHHYWGDLEVEFDYWGQGTQVTVSS | low polyreactivity |
| QVQLVESGGGLVQAGGSLRLSCAASGRTFYHYTMGWYRQAPGKERELVARITRRVGSTYYADSVKGRFTISRDNAKNTVYLQMNSLKPEDTAVYYCNDKSGLYRYLLDYWGQGTQVTVSS | high polyreactivity |
| QVQLVESGGGLVQAGGSLRLSCASSGSTFYTNAMGWYRQAPGKESEFVDAISWSGSSTYADSVKGRFTISRDNAKITVYLQMNSLKPEDTAVYYCAKATSSLYHYRYDYWGQGTQVTVSS | low polyreactivity |
| QVHLVESGGGLVQAGGSLRLSCAASGRTFIRYTMGWYRQAPGKEREFVAAINTSGGRTYYADSVKGRFTISRDNAKNTVYLQMNSLKPEDTAVYYCAAGYSASRKVDYWGQGTQVTVSS | high polyreactivity |
| QVQLVESGGGLVQAGGSLRLSCAASGSTFVYYAMGWYRQAPGKEREFVAGITRRTGSTYYADSVKGRFTISRDNAKNTVYLQMNSLKPEDTAVYYCAKRDARATPFGYWGQGTQVTVSS | high polyreactivity |
| QVQLQESGGGLVQAGGSLRLSCAASGSIARYYDMGWYLQAPGKEREFVAGISGGAISYYADSVKGRLTISRDNAKNTVYLQMNSLKPEDTAVYYCAADTCVYQYHSYWGQGTQVTVSS | low polyreactivity |
| QVQLVESGGGLVQAGGSLRLSCAASGIIFYDYAMVWYRQAPGKERELVAAISWGGGSTSYADSVKGRFTISRDNAKNTVYLQMNSLKPEDTAVYYCNKVSLSKRRDYYWGQGTQVTVSS | high polyreactivity |
| QVQLVESGGGLVQAGGSLRLSCAASGLIFRGYAMGWYRQAPGKERELVAAISSIAGSTYYADSVKGRFTISRDNAKNTVYLQMNSLKPEDTAVYYCAARSRWTFRDYYYWGQGTQVTVSS | high polyreactivity |
| QVQLVESGGGLVQAGGSLRLSCAASGRIFEYYAMGWYRQAPGKERELVAAIRSGGRTYYADSVKGRFTISRDNAKNTVYLQMNSLKPEDTAVYYCNKLYRGGYGYWGQGTQVTVSS | high polyreactivity |
| QVQLVESGGGLVQAGGSLRLSCAASGFTFRDNAMGWYRQAPGKEWELVAAITWDGGSTYYADSVKGRFTISRDNAKNTVYLQMNSLKPEDTAVYYCAASRYYPRYFKRYYYWGQGTQVTVSS | high polyreactivity |
| QVQLVESVVGLVQAGGSLRLSCAASGRTFRVNAMGWYRQAPGKERELVAAITWSGGTTYYADSVKGRFTISRDNAKNTVYLQMNSLKPEDTAVYYCAADRFWYGSWYDYWGHGTQVTVSS | high polyreactivity |
| QVQHVESGGGVVQAGGSLRLSCAASVRTFRYYDMGWYRQAPGTERELVAAITSRGGSSYYADSVKGRFTISRDNAKYTVYLQMNSLKPEDTAVYYCNAYPVQIFYLGNRQYNYWGQGTQVTVSS | high polyreactivity |
| QVQLVESGGGLVQAGGSLRLSCAASGSIFRLYAKGWYIQAPGKERELVAAISSGGSTYYADSVKGRFTISRDNAKNTVYLQMNSLKPEDTAVYYCNTAWTYWRYDYWGQGTQVTVSS | high polyreactivity |
| QVQLVESGGGLVQAGGSLRLSCAASGRTFGGYAMGWYRQAPGKERELVAAISKSGGSTYYAVSVKGRFTISRDTAKNTVYLQMNSLKPEDTAVYYCAAQGSSYSTRVWRRYYYWGQGTQVTVSS | high polyreactivity |
| QVQLVESGGGLVQAGGSLRLSCAASGRTFVNYAMGWYRQAPGKERELVAAISGGGGTNYADSVKGRFTISRDNAKNTVYLHMNSLKPQDTAVYYCAADTNGYEFDYWGQGTLVTVSS | low polyreactivity |
| QVQLVESGGGLVQAGGSLRLSCAASGFTSGRNTMGWYRQAPGKERELVAAISSSGGRTYYADSVKGRFTISRDNAKKTVYLQKHRLKAEDPAVYYCNVAGAIKRTIGDYEYWGQGTQVTVSS | high polyreactivity |
| QVQLVESRGGLVQAGGSLRLSCAASGPTFLINAMGCYRQAPGKETELVAEITGRGSSTYYADSVKGRFTISRDNAINTVYLQMNSLKAEDTAVYYCNAVLRKMTYDYWGQGTQVTVSS | high polyreactivity |
| QVQLVESGGGLFQAGGNLRLSCAASGRTFYPNAMGWYRQAPGKERELVAGIRSSGDSTYYADSVKVRFTISRDNAKNTVYFQMNSLKPEDTAVYYCNRDLTPSYDYWGQGSQVTVSS | low polyreactivity |
| QVQLVESGGGLVQAGGSLRLSCAPSGRIFDYYAMGWYRQAPGKESELVAAISGSGGSTYYADSVKGRFTISRDNAKNTVYLQMNSLKPEHTAVYYCAYGYLYCYDYWGQGTQVTVSS | low polyreactivity |
| QVQLVESGGGLVQAGGSLRLSCAASGGTFYLNAMGWYRQAPGKERELVAGITWGGGRTYYADSVKGRFTISRDNAKNTVYLQMNSLKQEDTEVYYCAAGAWRGPYSGYYYWGQGTQVTVSS | low polyreactivity |
